Results: PMC10208982, “Structural basis of catalytic activation in human splicing” (Nature, 2023)

Assays:
GPKOW = biological target: T1, GPKOW (Homo sapiens, UniProt Q92917 1-476); test: EMSA; 2 mM Mg2+; EMSA: 50 nM RNA, 0.1-8 uM protein, 20 mM HEPES-KOH pH 7.5, 50 mM KCl, 2 mM MgCl2, 0.1 mg/ml BSA, 5% glycerol, 30 min room temperature; 5% native gel in Tris-glycine; conditions: protein: recombinant; tags: N-terminal Twin-StrepII; label: Cy5 at 3' end of S3; 18 bp duplex, 3' overhang 30 nt on S4
T1 sequence: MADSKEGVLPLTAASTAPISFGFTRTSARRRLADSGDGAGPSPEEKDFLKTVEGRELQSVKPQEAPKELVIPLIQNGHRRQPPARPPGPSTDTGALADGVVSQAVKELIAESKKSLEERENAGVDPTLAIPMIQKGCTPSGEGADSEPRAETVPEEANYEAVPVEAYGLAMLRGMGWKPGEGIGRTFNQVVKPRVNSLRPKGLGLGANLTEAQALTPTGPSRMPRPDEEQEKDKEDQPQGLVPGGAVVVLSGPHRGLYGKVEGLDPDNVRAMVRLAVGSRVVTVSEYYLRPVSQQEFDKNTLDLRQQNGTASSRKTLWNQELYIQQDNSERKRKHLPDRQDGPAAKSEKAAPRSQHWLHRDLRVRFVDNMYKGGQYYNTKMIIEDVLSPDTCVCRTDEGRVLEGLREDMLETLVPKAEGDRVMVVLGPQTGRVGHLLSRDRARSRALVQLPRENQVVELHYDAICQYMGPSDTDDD

PRP2 (DHX16) 137-1022 = biological target: T2, PRP2 (DHX16) 137-1022 (Homo sapiens, UniProt O60231 137-1022); test: as above; conditions: protein: recombinant; tags: N-terminal Twin-StrepII; label: Cy5 at 3' end of S3; 18 bp duplex, 3' overhang 30 nt on S4
T2 sequence: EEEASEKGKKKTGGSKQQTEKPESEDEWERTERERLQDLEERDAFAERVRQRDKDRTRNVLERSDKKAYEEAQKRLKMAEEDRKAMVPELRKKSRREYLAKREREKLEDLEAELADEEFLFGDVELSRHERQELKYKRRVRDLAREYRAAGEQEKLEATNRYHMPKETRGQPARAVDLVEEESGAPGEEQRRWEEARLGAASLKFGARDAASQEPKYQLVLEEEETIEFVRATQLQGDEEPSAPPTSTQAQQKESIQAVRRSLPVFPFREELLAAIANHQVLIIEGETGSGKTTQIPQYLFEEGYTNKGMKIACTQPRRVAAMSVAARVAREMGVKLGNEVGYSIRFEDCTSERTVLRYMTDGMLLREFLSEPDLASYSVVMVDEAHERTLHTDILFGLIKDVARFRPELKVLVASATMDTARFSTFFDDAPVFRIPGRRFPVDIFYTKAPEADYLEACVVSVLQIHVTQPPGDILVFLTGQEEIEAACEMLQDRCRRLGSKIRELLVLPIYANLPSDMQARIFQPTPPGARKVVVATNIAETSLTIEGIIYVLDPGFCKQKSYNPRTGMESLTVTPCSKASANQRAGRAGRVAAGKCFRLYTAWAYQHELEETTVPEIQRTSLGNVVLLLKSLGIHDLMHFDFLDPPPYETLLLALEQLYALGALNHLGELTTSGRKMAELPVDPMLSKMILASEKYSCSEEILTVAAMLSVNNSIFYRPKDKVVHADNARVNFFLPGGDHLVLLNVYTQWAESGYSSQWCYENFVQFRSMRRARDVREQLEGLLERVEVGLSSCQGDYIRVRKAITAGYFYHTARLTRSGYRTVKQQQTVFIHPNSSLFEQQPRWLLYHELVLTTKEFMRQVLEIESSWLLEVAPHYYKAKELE

[1] = biological target: T3, PRP2 (DHX16) 137-1022;GPKOW (Homo sapiens;Homo sapiens, UniProt O60231;Q92917 137-1022;1-476, |); test: EMSA; complex assembled in vitro; 2 mM Mg2+; EMSA: 50 nM RNA, 0.1-8 uM protein, 20 mM HEPES-KOH pH 7.5, 50 mM KCl, 2 mM MgCl2, 0.1 mg/ml BSA, 5% glycerol, 30 min room temperature; 5% native gel in Tris-glycine; conditions: protein: recombinant;recombinant; tags: N-terminal Twin-StrepII;N-terminal Twin-StrepII; copies: 1;1; label: Cy5 at 3' end of S3; 18 bp duplex, 3' overhang 30 nt on S4
T3 sequence 1: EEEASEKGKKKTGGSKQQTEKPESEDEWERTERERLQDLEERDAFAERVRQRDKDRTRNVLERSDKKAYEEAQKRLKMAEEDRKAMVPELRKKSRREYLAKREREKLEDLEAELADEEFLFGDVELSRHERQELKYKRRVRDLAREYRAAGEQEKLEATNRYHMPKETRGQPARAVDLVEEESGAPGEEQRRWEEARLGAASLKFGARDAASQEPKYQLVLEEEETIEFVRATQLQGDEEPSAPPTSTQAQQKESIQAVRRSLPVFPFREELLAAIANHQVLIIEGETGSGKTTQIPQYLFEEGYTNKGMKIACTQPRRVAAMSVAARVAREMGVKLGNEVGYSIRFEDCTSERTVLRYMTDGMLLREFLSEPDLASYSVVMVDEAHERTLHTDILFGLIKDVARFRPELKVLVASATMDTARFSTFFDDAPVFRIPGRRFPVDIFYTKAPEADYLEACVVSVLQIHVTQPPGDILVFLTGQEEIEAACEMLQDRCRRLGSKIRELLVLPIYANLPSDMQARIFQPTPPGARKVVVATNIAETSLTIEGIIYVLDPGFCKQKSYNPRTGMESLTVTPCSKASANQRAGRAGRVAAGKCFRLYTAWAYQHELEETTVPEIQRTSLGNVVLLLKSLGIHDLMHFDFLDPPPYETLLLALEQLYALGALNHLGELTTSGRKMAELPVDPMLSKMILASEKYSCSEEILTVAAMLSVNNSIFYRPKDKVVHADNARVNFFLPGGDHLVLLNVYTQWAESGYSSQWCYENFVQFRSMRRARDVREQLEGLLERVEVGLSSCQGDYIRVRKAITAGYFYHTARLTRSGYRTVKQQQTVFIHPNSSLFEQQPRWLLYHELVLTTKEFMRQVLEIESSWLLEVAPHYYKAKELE
T3 sequence 2: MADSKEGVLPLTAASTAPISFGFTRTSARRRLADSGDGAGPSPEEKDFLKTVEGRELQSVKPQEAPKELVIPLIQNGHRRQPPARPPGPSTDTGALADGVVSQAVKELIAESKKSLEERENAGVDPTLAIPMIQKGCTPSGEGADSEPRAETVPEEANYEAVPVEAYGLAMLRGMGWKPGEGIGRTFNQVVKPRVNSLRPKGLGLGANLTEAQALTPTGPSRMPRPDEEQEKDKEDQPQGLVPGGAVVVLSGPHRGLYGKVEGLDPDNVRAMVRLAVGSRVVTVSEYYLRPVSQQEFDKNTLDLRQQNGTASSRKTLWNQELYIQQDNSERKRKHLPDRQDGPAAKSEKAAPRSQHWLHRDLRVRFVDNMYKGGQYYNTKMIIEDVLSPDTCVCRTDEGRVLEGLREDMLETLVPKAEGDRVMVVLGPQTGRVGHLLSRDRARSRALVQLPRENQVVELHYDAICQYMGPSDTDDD

[2] = biological target: T4, PRP2 (DHX16) 137-1022;PPIL4 (Homo sapiens;Homo sapiens, UniProt O60231;Q8WUA2 137-1022;1-492, |); test: EMSA; purified co-expressed complex; 2 mM Mg2+; EMSA: 50 nM RNA, 0.1-8 uM protein, 20 mM HEPES-KOH pH 7.5, 50 mM KCl, 2 mM MgCl2, 0.1 mg/ml BSA, 5% glycerol, 30 min room temperature; 5% native gel in Tris-glycine; conditions: protein: recombinant;recombinant; tags: N-terminal Twin-StrepII;untagged (Twin-StrepII removed by HRV-3C); copies: 1;1; label: Cy5 at 3' end of S3; 18 bp duplex, 3' overhang 30 nt on S4
T4 sequence 1: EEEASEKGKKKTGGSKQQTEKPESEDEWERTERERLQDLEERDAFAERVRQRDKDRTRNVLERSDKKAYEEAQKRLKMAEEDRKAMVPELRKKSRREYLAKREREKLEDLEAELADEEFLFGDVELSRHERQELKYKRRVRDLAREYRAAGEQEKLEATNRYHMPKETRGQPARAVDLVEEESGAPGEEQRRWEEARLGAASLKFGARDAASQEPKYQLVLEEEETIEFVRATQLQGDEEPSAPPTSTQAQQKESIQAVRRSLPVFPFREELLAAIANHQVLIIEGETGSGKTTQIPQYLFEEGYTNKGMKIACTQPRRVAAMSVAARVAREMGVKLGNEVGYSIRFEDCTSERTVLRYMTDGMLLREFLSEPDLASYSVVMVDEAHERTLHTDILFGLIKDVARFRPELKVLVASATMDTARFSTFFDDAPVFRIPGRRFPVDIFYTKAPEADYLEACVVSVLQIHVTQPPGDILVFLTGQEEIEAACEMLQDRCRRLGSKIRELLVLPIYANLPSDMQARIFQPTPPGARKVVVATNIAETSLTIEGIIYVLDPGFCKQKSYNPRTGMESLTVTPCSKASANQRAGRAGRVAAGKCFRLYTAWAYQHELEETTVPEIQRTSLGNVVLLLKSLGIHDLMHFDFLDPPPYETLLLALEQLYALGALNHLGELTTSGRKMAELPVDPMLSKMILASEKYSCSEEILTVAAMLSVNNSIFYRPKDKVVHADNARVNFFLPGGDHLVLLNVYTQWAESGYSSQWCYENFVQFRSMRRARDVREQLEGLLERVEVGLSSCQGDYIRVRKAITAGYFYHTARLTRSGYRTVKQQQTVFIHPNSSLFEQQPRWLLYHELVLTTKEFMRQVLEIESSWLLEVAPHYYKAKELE
T4 sequence 2: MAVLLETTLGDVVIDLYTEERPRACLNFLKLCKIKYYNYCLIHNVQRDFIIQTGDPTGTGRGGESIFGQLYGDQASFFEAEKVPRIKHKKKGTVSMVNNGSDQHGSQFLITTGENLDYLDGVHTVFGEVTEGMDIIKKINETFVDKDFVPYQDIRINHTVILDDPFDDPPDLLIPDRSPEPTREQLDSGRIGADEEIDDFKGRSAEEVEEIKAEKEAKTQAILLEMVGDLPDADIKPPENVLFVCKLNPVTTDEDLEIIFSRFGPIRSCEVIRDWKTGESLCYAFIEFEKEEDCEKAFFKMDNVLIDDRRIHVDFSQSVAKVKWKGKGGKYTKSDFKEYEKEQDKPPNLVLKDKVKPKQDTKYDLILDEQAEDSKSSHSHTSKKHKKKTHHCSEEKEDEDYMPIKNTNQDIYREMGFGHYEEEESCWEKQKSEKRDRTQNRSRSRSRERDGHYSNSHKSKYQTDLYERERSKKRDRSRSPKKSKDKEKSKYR

PPIL4 = biological target: T5, PPIL4 (Homo sapiens, UniProt Q8WUA2 1-492); test: EMSA; no PRP2; 2 mM Mg2+; EMSA: 50 nM RNA, 0.1-8 uM protein, 20 mM HEPES-KOH pH 7.5, 50 mM KCl, 2 mM MgCl2, 0.1 mg/ml BSA, 5% glycerol, 30 min room temperature; 5% native gel in Tris-glycine; conditions: protein: recombinant; tags: untagged (Twin-StrepII removed by HRV-3C); label: Cy5 at 3' end of S3; 18 bp duplex, 3' overhang 30 nt on S4
T5 sequence: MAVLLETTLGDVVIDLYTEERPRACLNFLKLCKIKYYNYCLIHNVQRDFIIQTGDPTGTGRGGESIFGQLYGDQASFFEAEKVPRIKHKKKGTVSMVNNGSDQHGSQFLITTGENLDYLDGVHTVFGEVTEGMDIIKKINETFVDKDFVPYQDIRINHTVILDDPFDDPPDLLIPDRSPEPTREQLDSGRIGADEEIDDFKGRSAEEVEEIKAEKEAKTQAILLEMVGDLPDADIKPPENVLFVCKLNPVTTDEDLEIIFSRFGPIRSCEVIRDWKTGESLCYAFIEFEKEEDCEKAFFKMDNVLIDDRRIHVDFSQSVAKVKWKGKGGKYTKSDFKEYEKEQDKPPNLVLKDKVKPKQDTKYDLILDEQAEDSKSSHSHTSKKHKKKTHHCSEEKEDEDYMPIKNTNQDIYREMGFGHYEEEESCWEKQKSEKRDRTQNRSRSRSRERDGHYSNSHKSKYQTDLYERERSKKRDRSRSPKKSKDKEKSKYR

Measured: binding result

B1: Cy5 RNA duplex with 30-nt 3' overhang (dsRNA)
RNA 1: GCGCCUACGGAGCUGGUGGCGUAGGCGCAAAAAAAAAAAAAAAAAAAA
RNA 2: CACCAGCUCCGUAGGCGC
binds: all assays above
